Drawing on publication PMC4868709 (2015), this text covers koff for three molecules.

The experiment addresses purified Annexin A2 (UniProt P07355 1-339). The experiment can be described thus: SPR.

purified Annexin A2, sequence (P07355 whole entry): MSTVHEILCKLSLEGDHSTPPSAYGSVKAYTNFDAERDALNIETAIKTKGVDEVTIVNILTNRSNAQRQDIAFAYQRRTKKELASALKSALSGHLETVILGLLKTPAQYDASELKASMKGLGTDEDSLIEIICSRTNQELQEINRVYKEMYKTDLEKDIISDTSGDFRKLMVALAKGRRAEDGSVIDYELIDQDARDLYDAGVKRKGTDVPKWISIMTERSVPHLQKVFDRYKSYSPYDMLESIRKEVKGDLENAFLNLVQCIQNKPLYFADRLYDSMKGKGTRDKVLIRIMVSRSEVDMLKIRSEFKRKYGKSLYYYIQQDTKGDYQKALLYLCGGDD

B1: purified I domain of CD147 (domain or fragment)
chain: PRVKAVKSSEHINEGETAMLVCKSESVPPVTDWAWYKITDSEDKALMNGSESRFFVSSSQGRSELHIENLNMEADPGQYRCNGTSSKGSDQAIIT
Regarding B1, the koff came out at 0.00307 s⁻¹.

B2: purified C2 domain of CD147 (domain or fragment)
chain: AAGTVFTTVEDLGSKILLTCSLNDSATEVTGHRWLKGGVVLKEDALPGQKTEFKVDSDDQWGEYSCVFLPEPMGTANIQLHG
The molecule B2 returned a koff of 1.14 s⁻¹. Compared with the last molecule, the koff is about 370-fold higher.

B3: purified His-tagged Ig-like domains of CD147 (CD147ECP-his) (domain or fragment)
chain: AAGTVFTTVEDLGSKILLTCSLNDSATEVTGHRWLKGGVVLKEDALPGQKTEFKVDSDDQWGEYSCVFLPEPMGTANIQLHGPPRVKAVKSSEHINEGETAMLVCKSESVPPVTDWAWYKITDSEDKALMNGSESRFFVSSSQGRSELHIENLNMEADPGQYRCNGTSSKGSDQAIITLRVRSHLAAL
B3: the koff stood at 1.14 s⁻¹.
